In a protein production outcome set (Wang et al. 2014):

Assay: label from the status in PepcDB records

In the case of “MLSYDIEVLKIINDEDNISQRRLAEMLNISLGKINSLLKELLTKEYIVKIDIDKRNVKYELTEAGIALLENSLDKVKSTKLSIHKHKFHKVKQAVILGAGGKGDFGKPAGFLELEEFRIIDRIIDILKSNGIEKIVIVNGYKKEYYEELAEKDSTIFCVTNSNYKWTGTMSSLALAKEYIDDDFILVENDLVFESRAVEQIIKNDNRDCVLITNESGSGDEAFVEIRDGYLFKMSKDVHQFNKIDGEMIGISKISYKLFKMMLEEFKHNINPYMNYEYTMLDVARNYKVGYEKINDLVWGEIDNKDQYEKVKKHIIPMIRRKEMQYKIDQVKSAIVNGLKVSEEEVKEIVPVGGMTNKNYKAFVNDKAYIVRIPGLGTSSMINRRDEMINSKLAADEGIDAKILFFDEESGVKIAELIEGAETLNPATAKKKENMELVVGALRTLHNSEIKMENRFNVFEKIEDYESLVKKVSGTLFEDYYEIKTRVLKLEKVLEDNGMEIKPCHNDTVPENFVKDINERMYLIDWEYSGLNDPMWDLAAHSIECDFSEDDEELFLNLYFNNLIEDKHKIRILVYKICQDFLWSIWTILKEAQGDDFGTYGIDRYNRGKKNLELLDKILMGQ”, the protein production is reported as “failed”.

In the case of “MTTTLSPDTARQIVPPEERYAAELAFLAAYDDGPRPPAWRLTPRAVVTFVMGSDGRALRLPEGAETPEGVPRRLTVEGKFVGDRSLVERCVVTLAGERGLLLVGEPGTAKSMLSELLSAAVCGTSGLVVQGTAGTTEDQLKYGWNYALLLAQGPSRTALVPSPVLTAMARGGIARVEEVTRCLPEVQDALVSLLSERRIAVPELSGTDDALAHAAPGFNLIATANLRDKGVSEMSAALKRRFNFETVGPIPDLDAETALVRSQARASVERAGAPFKVDEAVLEALVVAFRDLREGRSTEGWEVERPSTVMSTAEAVSVAGALGLAAAYFPGDRDVLGLLPGHLLGVVRKDDPADAARLRGYWDGPVRRRAEQGSATWRTLWDLRTVLEGLEHHHHHH”, the protein production is reported as “failed”.

For “GHHHHHHAIAENLYFQSSRNPEVLWAQRSDKVYLTVALPDAKDISVKCEPQGLFSFSALGAQGERFEFSLELYGKIMTEYRKNVGLRNIIFSIQKEERSWWTRLLKSEEKPAPYIKVDWNKWCDEDEEVNSETASDDESAFVNQDSESSDDDGLLYLPDLEKARNK”, the protein production was “failed”.

With “MQTRLATKQDIDTLATLERQHLNDELISGGFHLEGQAFTRTELTQLVEKHWIVVAEVNGRIIGYVIAGRWSFFETWPIYRNMLQRLNRMNGDGPQLTTQNSCQYGPIWIDNAHRGQGVFEALIAGIYREVAPSFDYMVTFIADENERSLAAHTRKANM” the protein production was “failed”.

For “VTIDNIQKTVAEYYKIKVADLLSKRRSRSVARPRQXAXALAKELTNHSLPEIGDAFGGRDHTTVLHACRKIEQLREESHDIKEDFSNLIRTLSS”, the protein production was “not failed”.

For “MPKKGSRPDRPSRRCARMTSTVPALGTRSAEGSALQAVLLDMDGTLVDTEGFWWDVEAEVFAALGHPLDESWRHVVVGGPMARSAGFLIEATGADITLAELTVLLNDGFEARIGRTLPLMPGAARLLAELAAHEIPTALVSASHRRIIDRVLTSLGSQHFALTVAGDEVARTKPFPDPYLLAASGLGAEPARCAVIEDTATGVAAAEAAGCRVVAVPSVAPIAPAARRTVVTSLEEVDLPFLRGLMTEMR”, the protein production was “failed”.

With “MDTRKLLLTAQEISRMKGEHKVHFLNPGAVRVNKSLGDAVGLRHMGIHLIQIEPGKESTEYHLHHYEEEAVYVLSGKGTLTMENDQYPIAPGDFVGFPCHAAAHSISNDGTETLVCLVIGQRLDQDVVDYPNQHKRLYRNNGEWNLVDMADIRVLREPTQK” the protein production was “not failed”.

In the case of “MPGAMHDEPDHPELSITVPTLNEAEGLERFFAMLSAQQGVRFELVIADGGSTDGTPESARRLAAATPFAATVIETGRGRGRQMNAGAAAAAGDTLLFLHADCAFPDPLALRTALDAFTQTVAAGGSHRVAGHFRLRFERTDSAPSLPYYFYEWKARLHRPGCTHGDQGLLLGRRFFAEAGPFDESFPILEDVGLAERIAALGEWLLLPAEIVTSARRFEAEGLRERQTLNALLMNFAAMGWDPFLAELPRLYQSQDRAGRLLLGPVLRLIARLLRPLPRRERGRLWRETGRYVRANAWQIPFFLDVRRHFRQGTPVGEGETPRLDLHDRIFDRLTENGAGHRATALLVWIWFRLSLLREPLTPPAARNPEGNGSLEHHHHHH”, the protein production is reported as “not failed”.

In the case of “MRETFADDLRSLHNKLIEMGRLTEVALQQAIEAFQTQNKNLAMAVIDGDGSIDKLEEEVNDFALWLIAKQQPVATDLRRIVAAIKIASDIERIADFAVNIAKACIRIGGQPFVMDIGPLVLMYRLATDMVSTAIAAYDREDASLAAQIADMDHRVDEQYGEMMKSLLEVEKTDKETLAQMNVLALVARYIERTADHATNIAEHLVYLVKGKHYDFND”, the protein production is reported as “not failed”.

For “MLSTTTIGFPRIGNQRQLKFAMESYFKGDSGEAELLAVAHKVQSDAWALQKAAGIAVIGLDGTLYDQVLDTITWLGAIPPRFKHLSGLQRYYAMARGGAALDMSKFFDTNYHYLVPELGPDVLGPATAAGAPLQPDFSGPLDKLARGQAVVGRERAVPILIGPVTFVSLSRGCELPLDQAVARLLPTYCALLQQLAAAGAPEVQLHEPVLATSEGAGMRAEFETAYAQMAQAAGSVPLHLVTYYDDLGAAYPWAVQLPVAAVTLDFLGPPGAAVPSQTLALLQQHGFPADKRLGAGVVDGRSVWKDDGTAVALLRALLDTGAVSSDRLVVTSSAPLQHLPYDLGLELEAPKTPEAEPHLPPALAARLGFAKQKVEEIVSVARLAASPAAAAAAAGHGAVVQLQRLQQGKGVEDHTADIPAEWFSRPKPYDVRREQQLQLPAFPTTTIGSFPQTAEVRRLRQQLKSGRLTQAEYEGLIAGHIAHAVGVQEALGIDVLVHGEAERTDMVEYFGMQLGGMLFTRAGWVQSYGSRCVRPPLVVDDITYRGPMTCWEYKVASAYTRKPVKGMLTGPVTILNWSFPRKDISRAAQAMQLGLALRQEVAALEAAGCTIIQVDDPALREGLPLKRERWASYLSWAVDAFRLCTGVAAAGTQVVTHLCYSDFQDILPAIDRMDADVLTIENSRSDNAMMAALAAAGYGRDIGPGVYDVHSPVVPSVEFIKSRIRSFVDSGILSGRYDRIWVNPDCGLKTRGWPETIAALRNMVEAAAQARAELQLAGGAAVAPVAGGVEAAGKGAALGAAAGTSRCVDCCH”, the protein production was “not failed”.

With “PTLYEKIQQANEEAVTRIIQSKPILVGFDKAINVMPDMTETTILHAGPPITYENMCGPMKGAVQGALVFEGLAKDLADADRVARSGAITFSPCHEHDAVGSMAGVTSPNMYVHIIKNETYGNTAFTNLSEQLAKVLRFGANDQSVVDRLIWMRDVLGPLLHDAMTFCPEGIDLRLMLSQALHMGDECHNRNVAGSTLLVQALTPYMVQTDFSREQLKEVFEFLGSSDYFSGPTWMGAAKCALDAGHNVENSTIVTTMCRNGVEFGIRVSGIGGNHWFTGPAQRVIGPMFAGYTQEDAGLDMGDSAITETYGVGGFAMAAAPAIVPLVGGTVAEALNYSKEMLEITTKENPNVTIPVLDFMGIPTGIDVLKVLETGMLPVINTAIAHKEPGIGMIGAGLTNPPANVFNEALKALVATIN” the protein production was “not failed”.

For “MEEVSSEMEVEVQNRQLSDSSPAQNVKKFGLKNSIQTNFGSDYVFQIVPKIDWTAIAVSLSTNTVKLYSPVTGQYYGECKGHSDTVNQIAFSSDSAASPHVLHSCSSDGTIRSWDTRSFQQVSRIDTGNDQEIFSFSYGGAADNLLAGGCKEQVLLWDWRNSKQVACLEESHMDDVTQVHFVPNKPNKLLSASVDGLICLFNTEGDINDDDHLESVINVGTSIGKIGFLGDGYKKLWCLTHIETLSIWNWEDGSCEVNLEKARELASDSWTQDNVDYFVDCHCPGGEDLWVIGGTCAGTVGYFPVNYKQPGSIGTAEAILGGGHIDVVRSVLQMPGEYGGAAGLFGWTGGEDGRLCCWKSDEDATEINRSWTSSELVVKPPRNRKKNRHSPY”, the protein production was “failed”.

For “MGHHHHHHSHMSHYRPELPAPRTDWSLSDVDQWDTAALADGIKSFLLALPAPLVTPEASAEARRALREAAGPVGPALEPPTLPLHRALTLRFLLQHLGRVARRAPALGPAVRALGATF”, the protein production was “failed”.

For “MSAGLTGIRVAVIGGDDREIYMIPELQKLGAYIVGVGFEKAAPIQGVTLLSSPLEAVEKADVLLFPMYGTDERGDVKAKYSETPIVLNKELLKAVSPKVPLFIGWARPALKSAAEMLGIQIVETANLDQLAILNSIPSAEGAIQMAMEASPITIHGSESFVLGLGRCGWTLARTLKGMGAHVTGVARKPADLARALEMGLEAVHFADLDEKIGKAELIFNTVPHLILDKVMLEQVNHEAVIIDIASLPGGTDFEYAKAKGIKAMLAPGLPGKVAPKAAGKILAQVYPQLILRHLTTKNASLKF”, the protein production was “failed”.

In the case of “MFKSVQQRTIQNGQVIPFYHSTNELAHIQNILQSQTPLVSLKEINKFRQLIARASVGEYFLIQSGDCAENFYECDKDTTHAKLDFIRHLATFFHQKTGCSVIQVGRIARQYAKPRSNQYEICQNKRIYSYFGGMINQSQETQRRPNPWRILLSYNCSASIYRKINQWNRGINPEQKIYTSQEAFLFNYEQSLTRWDERTGLYYNLSTHFPWLGKRTVSSLQHINHLKKIANPIAVKIGPDTPIKNLVKVINELDPSYIPGRITLIPELGAQNVYHILPQLIDAVKRTDRTVLWSCDPMHGNTETLSSGIKIRKLSNIVEEIKNSFFIHRKMGSQLNAIHLEATHQNVTECMDYKSSHCESISDLKKNYKNLLDPRLNYAQTLHVIQCVAKYYANS”, the protein production is reported as “failed”.

For “MALKATIYKADLNIANMDSHHYADYQLTLALHPSETIERLMVRILAFARFADENLQFTKDLFETDEPALWQKDLTGQLEQWIELGQPSEDKLKKASARCKHVVVVTYGQQVDEWWKRNNKVKTLSNVEVWQLAPETTSQLEKLCERTMQLQLNVMDGEWTLLNDHEQVDVSWTKLH”, the protein production was “failed”.

With “MNNRELYGNIRDVYHLLQKNLDKAIEQYDISYVQFGVIQVLAKSGKVSMSKLIENMGCVPSNMTTMIQRMKRDGYVMTEKNPNDQRETLVYLTKKGEETKKQVDVQYSDFLKENCGCFTKEEEGILEDLLLKWKKHLN” the protein production was “not failed”.

With “MSSVINYEKFEKIDISSSDDDNKKKLNPHLTKLDNKDKVVIGPNGLTILKNNNDEKIKHDKYNNTSKNVEEIKDKNDEYKTIYNETNNEILNNKNDNIHVQNMNNYVADDKKYKDMFINGAVVPYEYIWNQSIHYINAFICLPLNCKAKNLIVDIKEDKLIVKIKNYKCGIIYNNNNNNNKTNQHNTQSNSFHDNVEILVDKKFPFKINTDEDTQIWEIKNMQINWYTLFNLSNEINNQNVHYLFEDYNMLDKQETFLYISVKKINEIENAYIWWSTLFKNEHPIKIENLPSRSSTNKAKKTMNSFKTAWDEAHEIFKKNISMKQLPFRIDSS” the protein production was “failed”.

For “MSQLLKLKSQYDDECTVTRHYEGKGRNAGRLGAVGCKNRHGEFRIGSGFKDKDRDNPPKIGTLITYRYRGFTRKGTPKFATFVRVRTLEHHHHHH”, the protein production was “failed”.

With “SPINPYKDHMSVLKAYYAMNMEPNSDELLKISIAVGLPQEFVKEWFEQRKVYQYSNSR” the protein production was “not failed”.

In the case of “IDFRPYGGFIFDMDGTLIDTMPAHLAAWQATADRFDFPFCQEWLHSLGGMPSFKIVAELNRHYGLSLDPQTVSKFKMETFAAMELQGDVIQCTGIVLEEYLGQKKIAVGTGSQRESAMRLLSHAGLIDRLDAVVTASDVENHKPCPDTFLLAADRLGIDAQNCLVFEDTELGKRAAHSAGMDCVMVEGNNLV”, the protein production is reported as “failed”.

With “MATLEITDIALVQPSHQPLSNDQTLSLSHLDNDNNLHVSFRYLRVYSSSSSTVAGESPSAVVSASLATALVHYYPLAGSLRRSASDNRFELLCSAGQSVPLVNATVNCTLESVGYLDGPDPGFVERLVPDPTREEGMVNPCILQVTMFQCGGWVLGASIHHAICDGLGASLFFNAMAELARGATKISIEPVWDRERLLGPREKPWVGAPVRDFLSLDKDFDPYGQAIGDVKRDCFFVTDDSLDQLKAQLLEKSGLNFTTFEALGAYIWRAKVRAAKTEEKENVKFVYSINIRRLMNPPLPKGYWGNGCVPMYAQIKAGELIEQPIWKTAELIKQSKSNTSDEYVRSFIDFQELHHKDGINAGTGVTGFTDWRYLGHSTIDFGWGGPVTVLPLSNKLLGSMEPCFFLPYSTDAAAGSKKDSGFKVLVNLRESAMPEFKEAMDKFHKGEFALS” the protein production was “failed”.
